± gives the standard deviation of the averaged measurements.
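Further: PSI is a weighted mean of sequencing reads over stability bins, variants kept only with over 10 reads, mCherry proximal and sfGFP distal, peptide attached via GGGS linker.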

The test system of this data set is Saccharomyces cerevisiae. Description: protein stability index of tFT-peptide fusion (C-terminal peptide) (PSI (0-1 scale)); higher = more stable (slower turnover). The note with it: genetic background: wild type; temperature: 30 C.
Turning to RGISAAAAPGEG, the protein stability index came out at 0.706 ± 0.024.
Next, RGKEREGGRQER: 0.746 ± 0.045; RGLIVGMGAGMV: 0.671 ± 0.015; RGLNIPRLSCRY: 0.748 ± 0.008.
Next, RGPKDNGGSETS: 0.713 ± 0.078.
Consider RGPPCPFPVPLP, for which the protein stability index is 0.74 ± 0.033.
For the sequence RGPRWETVSSCM, the protein stability index came to 0.682 ± 0.027.
Next, RGRASVIWGGPG: 0.659 ± 0.086; RGRDTETFSDNS: 0.6901 ± 0.0054; RGRLRGPEPKMT: 0.726 ± 0.078.
As for RGRRGAGRKGGP, the protein stability index came out at 0.751 ± 0.15.
As for RGRWLIVHCPTQ, the figure is 0.605 ± 0.034; as for RGSGSGTRCRRS, 0.682 ± 0.11.
As for RGTGGGSESGVK, the figure is 0.661 ± 0.063; as for RGTWAVGGGRGG, 0.671 ± 0.065; as for RGVALWALYGAG, 0.76502 ± 0.00052.
In the case of RGVSRQVRTVDP, the protein stability index is 0.679 ± 0.03.
In turn, RGVSVRLSLAYR yielded a protein stability index of 0.6216 ± 0.0048.
Next, RGWARGRQGCGG: 0.726 ± 0.011; RGWWVLWGGGWG: 0.551 ± 0.025.
The sequence RHARAARDSPRR returned a protein stability index of 0.705 ± 0.081.
The sequence RHGFTNINGIKH yielded a protein stability index of 0.714 ± 0.012.
RHGVQMAGLKRR had a protein stability index of 0.679 ± 0.019.
Next, RHLMNYEKRNAN: 0.723 ± 0.053; RHNKVSPNARYN: 0.661 ± 0.027.
Next, RHPSVLPLSILL: 0.653 ± 0.054.
As for RHSPGPLLTPAP, the figure is 0.712 ± 0.045; as for RHTPPTTPLSLL, 0.701 ± 0.096; as for RICIGSLHGASI, 0.576 ± 0.019.
Consider RICPEVSSVLIR, for which the protein stability index stood at 0.682 ± 0.035.
Next, RIFFTCDSFLCV: 0.611 ± 0.04; RIGICSTNTSLQ: 0.722 ± 0.067.
Next, RIGYGEGWKKGG: 0.695 ± 0.067.
As for RIINRIDNKIEK, the protein stability index was found to be 0.672 ± 0.0039.
The sequence RIKKTRVVRQKM yielded a protein stability index of 0.547 ± 0.04.
Next, RILLSHGNSRSI: 0.699 ± 0.013; RINKRKKKKDKG: 0.6136 ± 0.00074.
Turning to RIQIKIKRTKNK, the protein stability index turned out to be 0.638 ± 0.11.
As for RIRRERRIGLKV, the figure is 0.559 ± 0.0092; as for RISGDVNCLSPR, 0.718 ± 0.066; as for RISGVEKPLLRV, 0.663 ± 0.015.
Next, RITRVRNKEQSK: 0.692 ± 0.016; RIVMSSDHTFQG: 0.635 ± 0.0072; RKAKHWKNKIQK: 0.737 ± 0.048.
Next, RKCPRVCVFQSS: 0.557 ± 0.017; RKDEKEMVRKTK: 0.682 ± 0.061; RKGRETGTKERE: 0.671 ± 0.036.
In turn, RKHIANPTDQND returned a protein stability index of 0.673 ± 0.019.
Next, RKHLIPRPTSNP: 0.71 ± 0.011; RKICINIEKKGE: 0.682 ± 0.018; RKIRIDKQRKVK: 0.716 ± 0.033.
As for RKKKKKLKKKTE, the figure is 0.66 ± 0.082; as for RKKRNKTQTSKT, 0.6936 ± 0.00054.
In turn, RKKRYRRRKIKK came in with a protein stability index of 0.773 ± 0.025.
Next, RKLFLKNELGSK: 0.7 ± 0.14.
Next, RKLKNKTKREII: 0.653 ± 0.0068; RKMRNGRKRKKK: 0.62 ± 0.025; RKNNTVIKQIKR: 0.656 ± 0.054.
As for RKRKIKQYITTT, the figure is 0.725 ± 0.043.
Consider RKVGRVGGGRLE, for which the protein stability index was found to be 0.637 ± 0.018.
The sequence RKVHNVETQITA displayed a protein stability index of 0.648 ± 0.018.
As for RKVRRTRNSEGE, the protein stability index came out at 0.726 ± 0.011.
Next, RLAAPPRYPPLP: 0.731 ± 0.12.
Next, RLATRPILDLPP: 0.519 ± 0.026; RLAVLKGWTTFV: 0.567 ± 0.039; RLAYSSGKAFRV: 0.702 ± 0.012.
As for RLCPGAALAFRG, the figure is 0.718 ± 0.12; as for RLCRQPPSLLPP, 0.6958 ± 0.0053; as for RLEFSFHPFFLS, 0.658 ± 0.02.
Consider RLFAPSHSSSLP, for which the protein stability index was determined as 0.733 ± 0.055.
As to RLFLGSIGTLTS, the protein stability index came to 0.673 ± 0.046.
As for RLFLSFVDRRSL, the figure is 0.629 ± 0.06; as for RLFSPFTLPPFF, 0.739 ± 0.063.
RLFSYLSTLSFI displayed a protein stability index of 0.727 ± 0.053.
Next, RLGGAACLRSEC: 0.627 ± 0.04; RLGLVITKLGVY: 0.541 ± 0.0081.
As for RLGNVYSTSFQC, the figure is 0.618 ± 0.012.
As for RLGRGRRGMRWL, the figure is 0.659 ± 0.025.
For the sequence RLHFSSPLLHPP, the protein stability index worked out at 0.601 ± 0.041.
As for RLHPSFPPPPPQ, the figure is 0.704 ± 0.029; as for RLIGLLRKTSKK, 0.719 ± 0.089.
Next, RLLSGLAHRATR: 0.672 ± 0.032; RLNKPRAPEKKA: 0.717 ± 0.11.
As for RLNQSKSTKYSE, the figure is 0.651 ± 0.012.
In turn, RLPPPLALDFRP displayed a protein stability index of 0.6308 ± 0.0063.
As for RLPRSPLHPSVP, the figure is 0.738 ± 0.016; as for RLPVIPRLIPSS, 0.635 ± 0.028.
Next, RLPVPRSLWSSN: 0.709 ± 0.013; RLRAFSRSVSSP: 0.734 ± 0.11; RLRCRRPKPRRC: 0.682 ± 0.035.
As for RLRRPSSGPFMF, the figure is 0.685 ± 0.037; as for RLSTPPAPQRPS, 0.666 ± 0.013; as for RLTPLSSSRLPP, 0.6556 ± 0.0043.
As for RLVGCWGRVKFE, the protein stability index worked out at 0.6927 ± 0.003.
Next, RLVGPFSSLRLF: 0.649 ± 0.0072; RLYGCNYAQSRR: 0.712 ± 0.047.
As for RMGWTRCRGGYG, the figure is 0.5865 ± 0.0044; as for RMTRIKKKINKS, 0.719 ± 0.034; as for RNAGIQVTGQAF, 0.704 ± 0.0079.
RNKKKAKKEENR: the protein stability index turned out to be 0.664 ± 0.048.
Next, RNKNYIDEEKER: 0.661 ± 0.037.
In turn, RNLFRRAPNQGL yielded a protein stability index of 0.723 ± 0.043.
As for RNLPAHQARPDE, the figure is 0.6751 ± 0.003.
In turn, RNNLSLALPREW had a protein stability index of 0.725 ± 0.018.
Next, RNRYCNLRVGFD: 0.679 ± 0.011; RNTRVSLPPRGQ: 0.63 ± 0.041; RNVKETSNRREL: 0.627 ± 0.11.
Consider RPDACTRFGLRV, for which the protein stability index was found to be 0.678 ± 0.013.
As for RPGLWGNEVGGN, the figure is 0.735 ± 0.013; as for RPGNGLTLPTAS, 0.622 ± 0.072; as for RPKGREKGEGRG, 0.733 ± 0.077.
As for RPLCRSFPPASL, the figure is 0.788 ± 0.058; as for RPLLHPRTGRSH, 0.677 ± 0.014.
As for RPLLPPVLPPPL, the figure is 0.684 ± 0.019.
RPLLPYHPTRFD displayed a protein stability index of 0.721 ± 0.048.
As for RPLSPPRPPPPS, the figure is 0.678 ± 0.014.

The values are drawn from the supplement of paper PMC10724198.
